For orientation: stoichiometry N means a count of units in the complex or per binding partner.

The series concerns the molecule itself. Nature of the series: dynamic light scattering; TRAF2-C ≈ 4 µM (in monomers), 20 °C, filtered 0.22 µm; bimodal Gaussian fit of the size distribution (monomers, trimers).

B1: C-terminal domain of human TRAF2 (TRAF2-C, residues 310-501) (domain or fragment, UniProt Q12933 310-501, looked up)
chain: DQDKIEALSSKVQQLERSIGLKDLAMADLEQKVLEMEASTYDGVFIWKISDFARKRQEAVAGRIPAIFSPAFYTSRYGYKMCLRIYLNGDGTGRGTHLSLFFVVMKGPNDALLRWPFNQKVTLMLLDQNNREHVIDAFRPDVTSSSFQRPVNDMNIASGCPLFCPVSKMEAKNSYVRDDAIFIKAIVDLTGL
notes: TNF receptor-associated factor 2 (TRAF2), human, C-terminal domain, residues 310-501; Unlabelled protein used for DLS, CD and SANS; Only a pET-based vector is named; the tag is inferred from the Ni-NTA step; also called TRAF2 C-terminal domain; source: E. coli BL21 (DE3), purified (Ni-NTA, Superdex 75 SEC)
In the case of B1, the “stoichiometry N” value worked out at 3.

Values taken from paper PMC12650658, “Evaluating the Topological Features of Monomeric and Trimeric TRAF2-C: A Multi-Disciplinary Approach” (Biomolecules, 2025).
